Publication doi:10.1101/2023.10.24.563710 (bioRxiv, 2023)

Target: the molecule itself
Assay: cryo-EM structure

Row | Protein | stoichiometry N
1 | P116 ectodomain (residues 30-957), C-terminally shortened and HIS-tagged (domain or fragment, Mycoplasma pneumoniae, UniProt P75556 30-957, looked up) NKTHQVEHESEQSDFQDIRFGLNSVKLPKAQPAAATRITVENGTDKLVNYKSSPQQLFLAKNALKDKLQGEFDKFLSDAKAFPALTADLQEWVDQQLFNPNQSFFDLSAPRSNFTLSSDKKASLDFIFRFTNFTESVQLLKLPEGVSVVVDSKQSFDYYVNASAQKLLVLPLSLPDYTLGLNYMFDHITLNGKVVNKFSFNPFKTNLNLAFSNVYNGVDVFEAQKNLVGKGKYLNTHVKAEDVKKDVNANIKNQFDIAKIIAELMGKALKEFGNQQEGQPLSFLKVMDKVKEDFEKLFNLVRPGLGKFVKDLIQSSSQAENKITVYKLIFDNKKTILNLLKELSIPELNSSLGLVDVLFDGITDSDGLYERLQSFKDLIVPAVKTNEKTAALSPLIEELLTQKDTYVFDLIQKHKGILTNLLKNFLADFQKSTPFMADQVAIFTELFDNEGAFDLFGEADFVDKIAELFLTKRTVKNGEKIETKDSLLVTSLKSLLGEKVAALGDLLDSYIFKNELLNRSVEVAKAEAKDTKGATDYKKEQAKALKKLFKHIGENTLSKTNLDKITLKEVKNTENVELEETETTLKVKKLDVEYKVELGNFEIKNGLIKAMLEFLPDTKDLETTLDKLLFKGESYKAMKDKYIKEGFPGYGWAKGVVPGAFESIENTFKSAIDKTKSIRDLFGDMLFGNDLSSVKETDSFITLGGSFDIKYGGENLNVLPAYYSLINSEIGYQIIGVDTTIDATKVKVELKNKEYKGKSPAINGQVKLSQSFFNVWTNMFDSITKQIFQKKYEFKDNIQVFARNEDNTSRLELDISDPEQRVIPFAFVDGFGIQLKAVDKNITKEAGNTEPKSPVIQLYEALNKEKDQKQQSKQSPKQLDTKTQLGYLLKLGDNWSKDDYKSLIDDTIINNNYLEASFNSKITVDRLG | 2
2 | ΔN-P116 (residues 246-818), truncated N-terminal domain and F-loop (domain or fragment, Mycoplasma pneumoniae, UniProt P75556 246-818, looked up) GVDVFEAQKNLVGKGKYLNTHVKAEDVKKDVNANIKNQFDIAKIIAELMGKALKEFGNQQEGQPLSFLKVMDKVKEDFEKLFNLVRPGLGKFVKDLIQSSSQAENKITVYKLIFDNKKTILNLLKELSIPELNSSLGLVDVLFDGITDSDGLYERLQSFKDLIVPAVKTNEKTAALSPLIEELLTQKDTYVFDLIQKHKGILTNLLKNFLADFQKSTPFMADQVAIFTELFDNEGAFDLFGEADFVDKIAELFLTKRTVKNGEKIETKDSLLVTSLKSLLGEKVAALGDLLDSYIFKNELLNRSVEVAKAEAKDTKGATDYKKEQAKALKKLFKHIGENTLSKTNLDKITLKEVKNTENVELEETETTLKVKKLDVEYKVELGNFEIKNGLIKAMLEFLPDTKDLETTLDKLLFKGESYKAMKDKYIKEGFPGYGWAKGVVPGAFESIENTFKSAIDKTKSIRDLFGDMLFGNDLSSVKETDSFITLGGSFDIKYGGENLNVLPAYYSLINSEIGYQIIGVDTTIDATKVKVELKNKEYKGKSPAINGQVKLSQSFFNVWTNMFDSITKQIFQ | 2
